Measured values taken from patent US20260258147A1 (Merck Sharp & Dohme, published 2026).

T1: soluble rhesus MSLN (87BIC) (Rhesus (Macaca mulatta))
T1 construct: Purified soluble protein coated on the ELISA plate; also called Rh MSLN (87BIC); purified rhesus MSLN
T1 chain: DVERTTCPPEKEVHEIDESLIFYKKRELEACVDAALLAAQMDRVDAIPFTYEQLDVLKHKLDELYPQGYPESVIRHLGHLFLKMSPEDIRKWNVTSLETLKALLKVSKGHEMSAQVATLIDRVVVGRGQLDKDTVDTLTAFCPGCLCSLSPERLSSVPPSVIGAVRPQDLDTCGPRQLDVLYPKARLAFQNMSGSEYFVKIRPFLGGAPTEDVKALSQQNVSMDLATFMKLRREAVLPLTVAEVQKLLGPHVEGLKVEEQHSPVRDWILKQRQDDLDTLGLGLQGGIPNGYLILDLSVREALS

T2: membrane-bound rhesus MSLN (Rhesus (Macaca mulatta))
T2 construct: The expressed construct is not described further; also called Rh MSLN-CHOK1; RhMSLN
T2 chain: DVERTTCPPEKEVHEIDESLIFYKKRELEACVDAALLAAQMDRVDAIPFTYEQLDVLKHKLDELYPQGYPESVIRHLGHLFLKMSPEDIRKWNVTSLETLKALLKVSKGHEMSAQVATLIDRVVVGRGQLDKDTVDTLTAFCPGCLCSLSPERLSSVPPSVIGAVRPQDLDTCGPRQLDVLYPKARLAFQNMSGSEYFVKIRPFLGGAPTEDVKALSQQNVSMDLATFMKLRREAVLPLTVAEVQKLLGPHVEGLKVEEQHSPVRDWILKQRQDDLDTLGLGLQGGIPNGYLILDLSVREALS


How the values were obtained:
[1] = target: T1, soluble rhesus MSLN (87BIC); assay: protein ELISA, coated soluble rhesus MSLN (87BIC)
Experimental: (§1) The wells of a 96-well plate are coated with 50 μL of purified human or rhesus MSLN in a carbonate coating buffer (5.3 g NaHCO₃ and 3.2 g Na₂CO₃ in 2 L H₂0) or HyClone Dulbecco's phosphate buffered saline (DPBS; Hyclone, cat #SH30028.02) at a concentration of 1-2 μg/mL and incubated overnight at 4° C. Afterwards, the plate wells are washed with well wash solution (phosphate buffered saline containing 0.05% polysorbate 20). The plate wells are then blocked by adding Super Block Blocking Buffer T20 (Thermo Scientific, #37536) for 1-2 hours at room temperature followed by washing with well wash solution. Next, 50 μL/well hybridoma supernatant fraction (used neat), or purified antibody starting at 10 μg/mL and serially diluted 4- or 5-fold in ELISA buffer (DPBS+0.1% BSA+0.05% polysorbate 20 is added to the wells. The plates are incubated for an hour at room temperature, then the wells washed with well wash solution and 50 μL/well horseradish […] (HRP) conjugated anti-species IgG diluted 1:3000-5000 in ELISA buffer is added to the wells. HRP conjugated anti-species IgG include goat anti-mouse IgG-HRP (Southern Biotech, cat #1030-05), goat anti-rat IgG-HRP (Southern Biotech, cat #3030-05), and goat anti-human IgG-HRP (Jackson Immunologics, cat #109-036-098). The plates are incubated for an hour at room temperature, then the wells washed with well wash and 50 μL/well ABTS Peroxidase Substrate (Kirkgaard & Perry Laboratories) is added to the wells. After 10 minutes the OD at 405 nm is measured using an ELISA plate reader.
(§2) The OVACAR3 cell line is a human ovarian cancer cell line that expresses high levels of human MSLN.

[2] = target: T2, membrane-bound rhesus MSLN; assay: cell ELISA, CHOK1 cells expressing rhesus MSLN
Experimental: (§3) The wells of a 96-well plate are seeded with sufficient cells to provide 95-100% confluency on day 0 (the day of assay). On day 0 the culture medium is removed and 50 μL/well hybridoma supernatant fraction, or purified antibody starting at 10 μg/mL or equal molar concentration and serially diluted 4 or 5-fold in CHO medium (DMEM F12, 10% Bovine serum). The plate is then incubated for an hour at room temperature or a temperature up to 37° C. Next, about 50 μL of a pre-determined concentration of ligand is added to the wells of the plate and the plate incubated for 30 minutes at room temperature or a temperature up to 37° C. The plate wells are washed with ELISA wash (PBS containing 0.05% polysorbate 20. Next, 50 μL/well of HRP-conjugated anti-species IgG diluted 1:2000 in CHO medium is added to the wells and the plate incubated for an hour at room temperature or a temperature up to 37° C. HRP conjugated anti-species IgG include goat anti-mouse IgG-HRP (Southern Biotech, cat #1030-05), goat anti-rat IgG-HRP (Southern Biotech, cat #3030-05), and goat anti-human IgG-HRP (Jackson Immunologics, cat #109-036-098). The plate wells are washed with the ELISA wash. Next, 50 μL/well TMB substrate (1 step Ultra TMB-ELISA: Thermo Fisher, Cat #34029) is added to the wells. When the blank starts to turn blue, 50 μL/well TMB stop solution (KPL, Cat #50-85-06) is added to the wells and A450-A620 is measured on an ELISA reader.
as §2

[3] = target: T3, soluble human MSLN (87BGR) (human, UniProt Q13421 296-598); assay: protein ELISA, coated soluble human MSLN (87BGR)
T3 construct: Purified soluble protein coated on the ELISA plate; also called HuMSLN (87BGR); purified human MSLN
T3 sequence (Q13421 other isoform, or with tags, fused parts or gaps limits assumed, form in doubt): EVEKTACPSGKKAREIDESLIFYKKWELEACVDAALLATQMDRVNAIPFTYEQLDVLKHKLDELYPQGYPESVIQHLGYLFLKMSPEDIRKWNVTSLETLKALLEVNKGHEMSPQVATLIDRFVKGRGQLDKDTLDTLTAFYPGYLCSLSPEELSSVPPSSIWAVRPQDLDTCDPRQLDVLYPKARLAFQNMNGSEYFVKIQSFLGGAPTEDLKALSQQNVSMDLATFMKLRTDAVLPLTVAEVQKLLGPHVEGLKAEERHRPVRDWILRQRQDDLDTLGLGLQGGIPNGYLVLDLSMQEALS
Experimental: as §1, §2

[4] = target: T4, membrane-bound human MSLN (human, UniProt Q13421 296-598); assay: cell ELISA, CHOK1 cells expressing human MSLN
T4 construct: the assay field says which; The construct expressed in CHOK1 is not described further; also called HuMSLN-CHOK1; human mesothelin on CHOK1 cells
T4 sequence (Q13421 other isoform, or with tags, fused parts or gaps limits assumed): as the sequence (Q13421 other isoform, or with tags, fused parts or gaps limits assumed, form in doubt) above
Experimental: as §3, §2

[5] = target: T4, membrane-bound human MSLN; assay: cell ELISA, OVCAR3 cells (endogenous human MSLN)

Binder	EC50 [1] [µg/mL]	EC50 [2] [µg/mL]	EC50 [3] [µg/mL]	EC50 [4] [µg/mL]	EC50 [5] [µg/mL]	binding result [2]
SV017.47D7.1C2 (antibody, V domains shown, also called antibody from hybridoma clone SV017.47D7.1C2) VH: EVQLVESGGGLVQPGGSLRLSCAATGFTFSSYWMHWVRQGPGKGLVWVSRINSDGTSTVYADSVKGRFTISRDNAKNTLYLQMNSLRAEDTAVYYCARGRGIMTYWGQGTLVTVSS VL: DIQMTQSPSSLSASVGDRVTITCRASQDIGSWLTWYQRKPEKAPKSLIYAASSLQSGVPSRFSGSGSGTDFTLTISSLQPEDFATYYCQQYKSYPLTFGQGAKLEIK	0.01	0.26	0.03	0.03	0.01	–
SV017.13B12.1E1 (antibody, V domains shown, also called antibody from hybridoma clone SV017.13B12.1E1) VH: EVQLVESGGGLVQPGGSLRLSCAATGFTFSSYWMHWVRQGPGKGLVWVSRINSDGTSTVYADSVKGRFTISRDNAKNTLHLQMNSLRAEDTAVYYCARGRGIMTYWGQGTLVTVSS VL: DIQMTQSPSSLSASVGDRVTITCRASQDIGSWLTWYQRKPEKAPKSLIYAASSLQSGVPSRFSGSGSGTDFTLTISSLQPEDFATYYCQQYKSYPLTFGQGAKLEIK	0.02	0.23	0.04	0.02	0.01	–
SV017.50G3.1B1 (antibody, V domains shown, also called antibody from hybridoma clone SV017.50G3.1B1) VH: EVQLVESGGGLVQPGESLRLSCAATGFTFSSYWMHWVRQGPGKGLVWVSRINSDGTSTVYADSVKGRFTISRDNAKNTLFLQMNSLRAEDTAVYYCARGRGIMTYWGQGTLVTVSS VL: DIQMTQSPSSLSASVGDRVTITCRASQDIGSWLTWYQRKPEKAPKSLIYAASSLQSGVPSRFSGSGSGTDFTLTISSLQPEDFATYYCQQYKSYPLTFGQGAKLEIK	0.02	0.33	0.04	0.05	0.01	–
SV017.51F4.1A1 (antibody, V domains shown, also called antibody from hybridoma clone SV017.51F4.1A1) VH: EVQLVESGGGLVQPGGSLRLSCAATGFTFSSYWMHWVRQGPGKGLVWVSRINSDGTSTVYADSVKGRFTISRDNAKNTLYLQMNSLRAEDTAVYYCARGRGIMTYWGQGTLVTVSS VL: DIQMTQSPSSLSASVGDRVTITCRASQDIGSWLTWYQRKPEKAPKSLIYAASSLQSGVPSRFSGSGSGTDFTLTISSLQPEDFATYYCQQYKSYPLTFGQGAKLEIK	0.02	0.26	0.03	0.04	0.01	–
SV018.20B12.1D1 (antibody, V domains shown, also called antibody from hybridoma clone SV018.20B12.1D1) VH: QVQLQESGPGLVKPSETLSLTCTVSGGSISSYYWSWIRQPPGKGLEWIGYIYYSGSTNYNPSLKSRVTISVDTSKNQFSLKLSSVTAADTAVYYCARTGYIPMDVWGQGTTVTVSS VL: EIVLTQSPDFQSVTPKEKVTITCRASQSIGSNLHWYQQKPDQSPKLLIKYVSQSFSGVPSRFSGSGSGTDFTLTINSLEAEDAATYYCHQSRSLPYTFGQGTKLEIK	–	–	0.11	0.01	0.01	no binding
SV018.45B6.1G1 (antibody, V domains shown, also called SV018.45.1G1) VH: QVQLLQSGAEVKKPGASVKVSCKASGYTFTTYGISWVRQAPGQGLEWLGWITAYNRNTNYAQKLQGRVTMTTDTSTSTSFMVLRSLRSDDTAVYYCARVGDSDAFDIWGQGTMVTVSS VL: EIVMTQSPATLSLSPGERATLSCRTSQSVFNSFLSWYQQKPGQAPRLLLYGTSTRATGIPARFSGSGSGTDFTLTISSLQPEDFAVYYCQQDYKLPLTFGGGTKVEIK	–	–	1.37	0.01	–	no binding
